Laboratory results: the nanobody polyreactivity screen of Harvey et al. (2022)

Experiment: yeast display, Sf9 membrane polyspecificity reagent, FACS + sequencing; frameworks hold sequencing errors
Outline: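 Nanobodies came from a synthetic yeast display library in Saccharomyces cerevisiae BJ5465, induced with galactose for 36–48 hours and stained for 1 hour at 4 °C with 10% biotinylated, detergent-solubilized Sf9 membrane reagent. Cells were enriched on streptavidin microbeads and then FACS-sorted, with low and high (top ~1%) gates set on anti-HA fluorescence for expression and streptavidin fluorescence for reagent binding. Each polyreactivity label reflects the gate a clone came from. Genes were amplified by colony PCR, sequenced by MiSeq 2 × 250 and filtered by CDR length.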

Sequence | polyreactivity (PSR sort gate)
QVQLVESGGGLVQAGASLRLSCAASGSTFKYYTMGWYRQAPGKERELVAAISFSGARTYYADSVKGRFTISRDNAKNTVYLQMNSLKPEDTAVYYCAKDRQYYYWGQGTQVTVSS | high polyreactivity
QVQLVETAGGLVQAGGSLRLSCAASGSTIRYNVMGWYRQAPGKERELVAAITINGGSTNYADSVKGRFTISRDNAKNTVYLQMNSLKPEDTAVYYCAAAKSYRSGSWYEYWGQGTQVTVSS | high polyreactivity
QVQLVESGGGLVQAGGSLRLSCAASGRIFDIYAMGWYRQAPGKEGELVAAIRLSSGTTYYADSLKGRITISRDYAKNNVYLQMSSVKQEDSAVYYCNAIYRRGRPGYYYWGQGTQVNVSS | high polyreactivity
QVQLVESGGGLVQAGGSLRLTCAASGSTYTGYAMGWYRQAPGKERELVAAISISGGRTFYADSVKGRFTISRDNAKNTVYLQMNSLKPEDTAVYYCAAYLRGSKYSFDYWGQGTQVTVSS | high polyreactivity
QVQLVESGGGLVQAGGSLRLSCAASGSTFLSYVMGWYRQAPGKERELVAAISGITGSTYYADSVKGRFTLSRDNAKNTVYLQMNSLKPQDTAVYYWAKVYGYNRLFYYRYDYWGQGTQVTVSS | high polyreactivity
QVQLVESGGGLVQAGGSLRLSFAASARTFYIYPMGWYRQAPGKERELVAAITYGGGRTFYADSVKGRFTISRDNANNTVYLQMNSLKPEDTAVYYCAATVRGKRSTYDYWGQGTQVTVSS | high polyreactivity
QVQLVESGGGLVQAGGSLRLSCAASGRIFNGNDMGWYRQAPGKERELVAAISYSGGSTYYADSVKGRFTISRDNAKNTVYLQMNSLKPEDTAVYYCAALTIRVGSLGRDYWVQGTQVTVSS | low polyreactivity
QVQLVESGGGIVQAGGSLRLSCAASGRIFDNYVLGWYRQAPGKERELVAAISSGGGTYYADSVKGRFTISRDNAKNTVYLQMNSLKPEDTAVYYCAKRRVYDRSFGRYDYWGQGTQVTVSS | low polyreactivity
QVQLVESGGGLVQAGGSLRLICAASGSNFWGNTMGWYRQAPGKERELVATISRRGGSTNYADSVKGRFTISRDNAKNTVYLQMNSLKPEDTAVYYCAAVTIYRSYRGNPYYYWGQGTQVTVSS | high polyreactivity
QVQLVESGGGLVQAGGSLRLSCAASGRIFINVLGWSRQAPGKETELVATITNSGGSTYYADSVKGRFTISRDNAKNTVYLQMNSLKPEDTAVYYCAKRSYHRYGVYRYDYWGQGTQLTVSS | high polyreactivity
QDQHVESGGGLVQAGGSLRLSCAASGRTFYSYTMGWYRPPPGKERELVAAINRSGGRTYYADSVKGRFTISRDNAKNTVYLQRNSLKPEDTAVYYCNALEYYRFDYWGQCTQVTVSS | high polyreactivity
QVQLVESGGGLVQAGGSLRLSCAASGFTFDDNAMGWYRQAPGKERELVAVITKSGGRTYYADSVKGRFTLSRDNAKNTVYLQMNSLKPEDTAVYYCNADGRNWYYKWYDYWGQGTQVTVSS | low polyreactivity
QVQLVESGGGLVQAGGSLRLSCAASGRIFWVYAMGWYRQAPGKERELVAAISLSGGRTYYADSVKGRFTISRDNAKNTVYLEMNSLKPEDTAVYYCNAVYPKRGGGRIVDYWGQGTQVTVSS | high polyreactivity
QVQLVESGGGLVQAGGSLRLSCAASGFTFDNYTMGWYRQAPGKERELVAAITSSAGSTDYADSVKGRFTISRDNAKNTVYLQMNSLKPEDTAVYYCNDDFLYGTYDYWGQGTQVTVSS | low polyreactivity
QVQLVESGGGSVQAGGSLRLICAASGSTFSDYDMGWYRQAPGKERELVAAISIGGRTNYADSVKGRFTISRDNAKNTVYLQMNSLKPEDTAVYDCAADSQSIYAYWPGGGYGYWGQGTQVTLSS | low polyreactivity
QVQLVESGGGLVQAGGSLRLSCAASGSIFFLYAMGWYRQAPGKERELVAAISCSGGRTYYADSVKGRFTISRDNAKNTDYIQMNSLKPEDTAVYYCAASYSGRQDRYPHYDYWGQGTQVTVSS | low polyreactivity
QVQLVESGGGLVQAGGSLRLSCAASGFTFYQNAMGWYRQAPGKEREFVAAISRRGGSTYYADSVKGRFTISRDNAKNTVYLQMNSLKPEDTAVYYCAADYKRKSDGDYWGQGTQVTVSS | high polyreactivity
QVQLVESGGGLVQAGGSLRLSCAASGFIFRYYAMGWYRQAPGKERELVASIVWSGGNTYYADSVKGRFTISRDNAKNTVYLQMNSLKPEDTAVYYCNRRGMDWGQGTQVTVSS | low polyreactivity
QVQLVESGGGLVQAGGRLRLSCAASGRTIYGYDKGWYRQAPGKERELVAAINIGGRTNYADSVKGRFTISRDNAKNTVYLQMNSLKPEDTAVYYCADRYTFGPYLARSYGYWGQGTQVTVSS | low polyreactivity
QVQLVESRGVLVQAGGSVRVSCAASGSTFTFNAMGWYRQAPGKVRELVADITSGGRTNYADSVKGRFTISRDNAKNTVYLQMNSLKPEDTAVYYCAARWWAHEYPGYDSWGQGTQVTVSS | low polyreactivity
QVQLVESGGGLVQAGGSLRLSCAASGSNFVGYVMGRYRQAPGKERELVARIRWGGGRTYYADSVKGRFTISRDNAKNRVYLQMKSLKAEDTAVYYCAAVWRTRWAPGYYWGQGTQVTGSS | high polyreactivity

Sequence | polyreactivity (PSR sort gate)
QVQLVESGGGLVQAGGSLRLSSAASGSIFSTNEMGCYRQAPGKERELVAAISVSGGSTYYADSVKGRFTISRDNAKNTVYLQMNSLKPEDTALYYCNADYTRGTMYYWGQGTQVTVSS | low polyreactivity
QVQLVESGGGLVQAGGSLRLSCAASGLIFEPYVMGWYRQAPGKERELVASITWSAGSTYYADSVKGRFTISRDNAKNTVYLQMNSLKPDDTAVYYCAARHGYGWGFSGVPAQGYEYWGQGTQVTVSS | low polyreactivity
QVQLVESGGGLVQAGGSLRISCAASGSTFWYHAKGWSRQAPGKERELVATITNSGGSTYYADSVKGRFTISRDNAKNTVYLQKNSLKPEDTAVYYGATDVYSGALLKYDFWGQGTQVTVSS | low polyreactivity
QDQLVESGGGLVQAGGSLRLSCAASGSTLYAYAMGWYRQAPGKERELVAASRTGGSTYYADSLKGRFTISRDNAKNTVYLQMNSLKPEDTAVYYCAALYYHEYDYWGQGTQVTVSS | low polyreactivity
PVQLVESGGVLVQAGGSLRLSCAASGRTFSYYAMGWYRQAPGKERELVADNNCSGTSTDYADSVKGRFTISRDNAKNTVYLQMHSLKPEDTEVYYCPAYLIVYYGDETPYASLHDYWGQGTQVSVSS | low polyreactivity
QVQLVESGGGLVQAGCRLRLSCAASGRTFFPYAMGWYRQAPGKERELVAAITTGDITNYADSVKGRFTISRDNAKNTVYLQMNSLKPEDTAVYYCAARGYASWSYGGYPLKLDYWGQGTQVTVSS | low polyreactivity
QVQLVESGGGLVQAGGSLRLSCAASGFTNAMGWYRQAPGKERELVAAISYSGDSTNYADSVKGRFTISRDNAKNTVYLQMNSLKPEDSAVYYCNASSPYDYDWGQGTQVTVSS | low polyreactivity
QVQLVESGGGLVQAGGSLRLSCAASGYTFTIYAMGWYRQAPGKERELVAAITGRGGRTNYADSVKGRFTISRDNAKNTVYLQMNSLKPEDTAVYYCAKGGRSSSPRYRFDYWGQGTQVTVSS | high polyreactivity
QVQVVESGGGLVQAGGSLRLSCAASGRTFGPYAMGWFRQAPGKEREFVAAISYSGGSTYYADSVKWRFTISRDNAKNTVYLQMNSLKPEDTAVYYCAAEGDYYDFISPPLDYWGQGTQVTVAS | low polyreactivity
QVQLQESGGGLVQAGGSLRPSCAASGSLSDGVPMGWYRQAPGEERELVATTVLGATTNYADSVKGRFTISRGNAKNTVYLQMNSLKPEETAVYYCAAPLRYDKGFSYWGQGTQVTVSS | low polyreactivity
QVQLVESGGGLVQAGGSLRLSCAASGSIFHSYAMGWYRQAPGKERDFVASITQRVGRTNYADSVKGRFTISRDNAKNTVYLQMNSLKPEDTAVYYFAASYWRLYYRRDYWGQGTQVTVSS | high polyreactivity
QVQLVESGRGLVQAGGSLRLSCAASGFTFRTYAMGWYRQSPGKERELDAAITRNGGTYYADSVKGRFTISRDNAKITVYLPMNSLKPEDTARYYCATDPAYWGDLPPEDDYWGQGTQVTVSS | low polyreactivity
QVQLVESGGGLVQAGGSLRLSCAASGIIFQRNAMGWYRQAPGQERELVAAISSGGRTYYADSVKGRFTISRDNAKNTVYLQMNSLKPEDTAVYYCNAASYSRGRARYDYWGQGTQVTVSS | high polyreactivity
QVQLVESGGGLVQAGCSLRLSCAASGRIFGGYAMGWYRQAPGKERELVAAISSGGNTKYADSVKGRFTISRDNAKNTVYLQMNSLKPEDSAVYYCAAKFAQPDYRYDYWGQGTQVSVSS | high polyreactivity
QVQLVESGGGLVQAGGSLRLICAASGFIFPHNTMGWYRQAPGKERELVAAISSGGSTNYADSVKGRFTLSRDNAKNTVYLQMNSLKPEDTAVYYCATVSVRWPSNDHVRYDYWGQGTQVTVSS | low polyreactivity
QVQLVESGGGLVQAGGSLRLSCAASGSTFYGNAMGRYRQAPGKEWELVAAISWSGGSTYYADSVKGRFTISRDNAKNTVYLQMNSLKPEDTAVYYCNADGSDRVWYDGYDYWGQGTQVTVSS | low polyreactivity
QVQLVESGGGLVQAGGSLRLSCAASGSTFAGNGMGWYRQAPGKERELVAGIDVTGGSTYYADSVKGRFTISRDNAKNTVYLQMNRLKPEDTAVYYCNARYVYHSSFAGFDYWGQGTQVTVSS | low polyreactivity
QVQLVESGGGLVQAGGSLRLSCAASGRTFTSYAMGWYRQAPGKERELVAVITRRGGSTSYADSVKGRFTISRDNAKNTVYLQMNSLKPEDTAVYYCAAKRTWPDVKYIRYGYWGQGTQVTVSS | high polyreactivity
QVQLVESGGGLVQAGGSLRLSCAASGRIFNLYAMGWYRPAPGKESELVAAISGSGGRTSYADSVKGRFTISRDNAKNTVYLQMNSLKPEDTAVYYCAADYSFYTSFRYDYWGQGTQVTVSS | low polyreactivity
QVQLVESGGGLVQAGGSLRVSCAASGRTFRGYSMGWSRPAPGKERELVAAISWRGGTTYYADSVKGRFTISRDNAKNTVYLQMNSLKPEDTAVYYCAARRYRISKTSGYWGQGTQVTVSS | high polyreactivity
